One molecule from patent publication US20230295310A1 (ABCELLERA BIOLOGICS, published 2023) can be followed below.

Experiment [1] has as its target T1, human CD3 expressed on cells (human, UniProt P07766 23-207; P04234 22-171; P09693 23-182).
T1 construct: whole, on cells; CD3 complex on Jurkat cells and on human primary T cells
Briefly: flow cytometry, human primary T cells (Jurkat cells in c2 gave 15.495, CD3 KO Jurkat cells in c3 gave 38.63). Here is the method:
Purified antibodies were confirmed to bind CD3 expressed on cells using the CytoFLEX S or LX flow cytometers (Beckman Coulter). Antibodies were diluted to 25 nM in FACS buffer (PBS+2% FBS) and were incubated with CD3-expressing cells for 30 minutes at 4° C. […] The median fluorescence intensity of the binding signal for each antibody was normalized to the isotype control to obtain a fold over isotype value. An antibody with a fold over isotype (FOI) of ≥10 was considered to be positive for binding.

In experiment [2] the target is T2, cynomolgus monkey CD3 expressed on primary T cells (cynomolgus monkey, UniProt Q95LI5 22-198; Q95LI8 22-171; Q95LI7 23-181).
T2 construct: whole, on cells; CD3 complex on purified cynomolgus monkey T cells; also called cyno CD3
Briefly: flow cytometry, 25 nM, cyno primary T cells. Put shortly: (§1)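 Antibodies at 25 nM in PBS + 2% FBS were incubated with CD3-expressing cells for 30 min at 4 °C and read by flow cytometry. Median fluorescence intensity was normalized to isotype control as fold over isotype; ≥10 counted as binding.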

The target in experiment [3] is T1, human CD3 expressed on cells. Kind of experiment: flow cytometry, 25 nM. A digest of the protocol: as §1
(In general: In flow cytometry, cells or beads pass a laser one at a time.)

T1 sequence (P07766 23-207, chain 1 of 3): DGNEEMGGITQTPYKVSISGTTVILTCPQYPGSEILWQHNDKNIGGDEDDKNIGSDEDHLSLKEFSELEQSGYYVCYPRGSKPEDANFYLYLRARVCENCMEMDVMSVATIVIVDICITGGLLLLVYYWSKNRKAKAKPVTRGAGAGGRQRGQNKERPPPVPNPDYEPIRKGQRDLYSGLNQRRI
T1 sequence (P04234 22-171, chain 2 of 3): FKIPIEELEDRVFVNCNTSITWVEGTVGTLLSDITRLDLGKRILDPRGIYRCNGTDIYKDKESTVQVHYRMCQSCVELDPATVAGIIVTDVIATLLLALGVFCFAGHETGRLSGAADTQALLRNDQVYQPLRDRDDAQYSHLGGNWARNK
T1 sequence (P09693 23-182, chain 3 of 3): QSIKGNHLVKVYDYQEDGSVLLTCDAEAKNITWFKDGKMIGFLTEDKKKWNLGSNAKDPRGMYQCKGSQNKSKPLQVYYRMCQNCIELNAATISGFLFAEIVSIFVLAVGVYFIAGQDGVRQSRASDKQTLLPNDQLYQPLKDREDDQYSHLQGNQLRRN
T2 sequence (Q95LI5 22-198, chain 1 of 3): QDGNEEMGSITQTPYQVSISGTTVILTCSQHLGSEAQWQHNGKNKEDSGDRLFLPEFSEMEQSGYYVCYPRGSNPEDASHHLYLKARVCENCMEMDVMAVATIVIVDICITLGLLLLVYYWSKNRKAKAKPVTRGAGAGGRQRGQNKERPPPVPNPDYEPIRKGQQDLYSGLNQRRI
T2 sequence (Q95LI8 22-171, chain 2 of 3): as the sequence (P04234 22-171, chain 2 of 3) above, with I5V, N15K, I20V, S32T, D33N, I34N, T64A, S74N, V83L, H141R counted along it
T2 sequence (Q95LI7 23-181, chain 3 of 3): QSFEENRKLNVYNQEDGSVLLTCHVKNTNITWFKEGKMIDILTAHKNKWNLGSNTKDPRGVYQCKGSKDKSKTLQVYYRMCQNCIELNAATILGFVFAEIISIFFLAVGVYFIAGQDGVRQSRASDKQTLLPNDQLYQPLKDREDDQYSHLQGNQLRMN

B1: mAb 143 (antibody, V domains shown)
VH: QVQLMQSGSELEKPGASVKVSCKASGYTFTSFAINWVRQAPGQGLEWMGWINTITGNPSYAQGFTGRFVFSLDTSVTTAFLQINSLKTEDTAVYYCARYVTSSGKFDYWGQGTLVTVSS
VL: DIQMTQSPSSVSASVGDRVTITCRASRGISRWLDWYQQKPGKAPKLLIYAASNLQGGVPSRFSGSGSGTDFTLTIRSLQPEDFAIYYCQQAKTFPFTFGPGTKVDIK
Regarding B1, the binding result is listed as “no binding (tested: FOI >=10 = positive; 25 nM)” in experiment [1] and “no binding (tested: FOI >=10 = positive)” in experiment [2]. In addition, in experiment [3], the “Jurkat Cell Binding (FOI)” value is 15.5 FOI.
